# B1: Serp-1: Recombinant Serp-1 (m008.1L), secreted Myxomavirus glycoprotein serpin, expressed in CHO cells; SEQ ID NO: 1 (protein, listed as Homo sapiens)
# chain: MKYLVLVLCLTSCACRDIGLWTFRYVYNESDNVVFSPYGLTSALSVLRIAAGGNTKREIDVPESVVEDSDAFLALRELFVDASVPLRPEFTAEFSSRFNTSVQRVTFNSENVKDVINSYVKDKTGGDVPRVLDASLDRDTKMLLLSSVRMKTSWRHVFDPSFTTDQPFYSGNVTYKVRMMNKIDTLKTETFTLRNVGYSVTELPYKRRQTAMLLVVPDDLGEIVRALDLSLVRFWIRNMRKDVCQVVMPKFSVESVLDLRDALQRLGVRDAFDPSRADFGQASPSNDLYVTKVLQTSKIEADERGTTASSDTAITLIPRNALTAIVANKPFMFLIYHKPTTTVLFMGTIT
# Tests used:
# [1] = test system: full thickness dorsal skin wound; assay: full-thickness splinted excisional wound healing model, planimetric wound closure; format: in vivo, C57BL6/J mice
# From the text: The mouse dermal wound healing splinted model was used for these studies where the contraction is held by a donut-shaped splint remains the most widely accepted and extensively used model to study skin wound healing in mice (Galiano et al., Wound Repair Regen. 12 (2004) 485-492. doi:10.1111/j.1067-1927.2004.12404.x, Wang et al., Nat. Protoc. 8 (2013) 302-309. doi:10.1038/nprot.2013.002, Dunn et al., J. Vis. Exp. (2013) 1-6. doi:10.3791/50265).
# Mice (N=29 mice) were anesthetized by intraperitoneal injection of a cocktail of 120 mg/kg ketamine and 6 mg/kg xylazine, 0.1 ml/25 g bodyweight and prepped by shaving an area of approximately 1×1 inch spanning from between the ears to the peak of the spine, centered between each shoulder. The shaved area was sterilized by two washes with 2% chlorhexidine gluconate solution (Dyna-Hex 2®, Xttrium Laboratories) and 70% ethanol using cotton swabs.
# A 3.5 mm punch biopsy was performed centered in the shaved area to create the full-thickness wound excision. Treatment or control as saline solution or chitosan-collagen hydrogel preparation were applied to the wound using a hand-held micropipette. In brief, 13 mice were given saline inoculation at the time of injury, 6 mice were given Serp-1 at the time of injury at doses or 1 or 2 μg. Six mice were given 1 μg of Serp-1 and followed by second bolus at 3 days post wounding. A second group of 6 mice were given Serp-1/chitosan treatment applied at the time of injury and 6 mice were given chitosan gel alone.
# A donut-shaped silicon splint (O.D. 15 mm; I.D. 5.0 mm; Culture-Well™ Grace Biolabs) with Tegaderm™ (3M Company) affixed to one side was coated with cyanoacrylate glue (Krazy Glue®) on the opposite side and carefully placed on the back of the mouse with the biopsy site centered within the inner hole. Six interrupted sutures (4-0 black Ethilon monofilament with a FS-2 reverse cutting needle; Ethicon, Inc.) were placed around the outer edge of the splint to complete the procedure. Mice were allowed to recover and returned to single-housed cages for the remainder of the trial.
# On the day of the procedure (Day 0) and on every subsequent day of follow-up, for a total of 15 days, mice were collected and wounds assessed while awake. Digital images were collected using a Google Pixel model 1 or 3XL smartphone camera. Planimetric measurements of wound healing progress was performed in Image)/FIJI and calibrated to known pixel-to-size measurements (Schindelin et al., Nat. Methods. 9 (2012) 676-682. doi:10.1038/nmeth.2019).
# Serp-1 has proven to be an effective modulator of coagulation pathways and immune responses in numerous animal models of vascular injury and transplant. […] In this study, the efficacy of topical Serp-1 application was tested in a full-thickness excisional model of wound healing (FIG. 2A). A 3.5 mm biopsy punch was used to create a full thickness dorsal skin wound in C57BL6/J wildtype mice. Wounds were produced through the entirety of the dermis without puncturing the panniculus carnosus. In an initial analysis, Serp-1 was applied in saline solution and compared to control saline solution alone, given directly to the wound bed. A silicone splint with a gas-permeable Tegaderm layer was sutured over the bed. The silicone splint prevented wound contraction, allowing direct visualization and photography of wound re-epithelialization during the course of a 15-day healing period (FIG. 2B).
# CD31-positive vessels = assay: CD31 immunohistochemistry of peri-wound vascularization; format: in vivo, C57BL6/J mice
# From the text: (§1) Skin tissues were collected at day 1, 4, 7 and 15 and fixed in 10% neutral-buffered formalin for at least two days before tissue processing with a Leica TP1050 and embedded in paraffin with a Leica EG1160 embedding station. Blocks were serially sectioned using a Leica RM2165 microtome (4 μm sections) and stained with hematoxylin and eosin (H&E) by standard procedure. […]
# (§2) Slides were imaged on an Olympus BX51 upright microscope equipped with an Olympus DP74 high-resolution camera operated by cellSens Dimensions v1.16. Images were collected as objective-calibrated TIFFs and subsequently analyzed and processed in Image)/FIJI (Schindelin et al., Nat. […] Positively stained cells were counted per high power field for each treatment group.
# The blood vessels were analyzed by immunohistochemistry with antibodies against the endothelial marker CD31 (also called PECAM-1), a marker for endothelial cells commonly used to indicate wound bed blood vessels (Vanchinathan et al., Am. J. Clin. Pathol. (2015). doi:10.1309/AJCPRHM8CZH5EMFD). The number of positive staining vessels in different optical fields was quantified from four pairs of saline- and Serp-1-treated wounds. […]
# Ly6G positive cells = assay: Ly6G immunohistochemistry, neutrophil infiltration in wounds; format: in vivo, C57BL6/J mice; conditions: day 4; p=0.110
# From the text: (§3) Skin tissues were collected at day 1, 4, 7 and 15 and fixed in 10% neutral-buffered formalin for at least two days before tissue processing with a Leica TP1050 and embedded in paraffin with a Leica EG1160 embedding station. Blocks were serially sectioned using a Leica RM2165 microtome (4 μm sections) and stained with hematoxylin and eosin (H&E) by standard procedure. Sections were additionally stained by immunohistochemistry (IHC) for CD31 (Abcam, #ab28364, 1:100), Ly6G (Invitrogen, #14-5931-82, 1:100), and arginase-1 (Cell Signaling, #93668, 1:200), and with Masson's trichrome (Masson, J Tech Methods. 12 (1929) 75-90) and Herovici's polychrome (Herovici, Stain Technol. 38 (1963) 204-6, Levame and Meyer, Pathol. Biol. (Paris). 35 (1987) 1183-8) as special stains for collagen.
# Slides were imaged on an Olympus BX51 upright microscope equipped with an Olympus DP74 high-resolution camera operated by cellSens Dimensions v1.16. Images were collected as objective-calibrated TIFFs and subsequently analyzed and processed in Image)/FIJI (Schindelin et al., Nat. Methods. 9 (2012) 676-682. doi:10.1038/nmeth.2019). Positively stained cells were counted per high power field for each treatment group.
# Therefor neutrophil infiltration was analyzed at sites of wound healing with and without treatment with Serp-1 at day 4 by immunohistochemistry with antibodies against Ly6G (FIG. 6A).
# [2] = test system: Arg-1 positive macrophages; assay: Arginase-1 immunohistochemistry, M2 macrophage differentiation in wounds; format: in vivo, C57BL6/J mice
# From the text: as §1, §2
# Additionally the differentiation of M2 macrophages was =analyzed (FIG. 6C), during wound-healing (Kotwal and Chien, Macrophage differentiation in normal and accelerated wound healing, in: Results Probl. Cell Differ., 2017. doi:10.1007/978-3-319-54090-0_14), by IHC with antibodies against Arginase-1 (EC3.5.3.1). […]
# dermal collagen fibers = assay: quantitative collagen texture analysis, Masson's trichrome; format: in vivo, C57BL6/J mice; conditions: 15 days wound healing
# Experimental: as §1
# Quantitative collagen texture analysis was performed in Image)/FIJI (Schindelin, Nat. […] Local thickness of collagen bundles was determined with the plugin “LocalThickness 4.0.2” using the methods described by Saito and Toriwaki (Saito, Pattern Recognit. 27 (1994) 1551-1565. doi:10.1016/0031-3203(94)90133-3), and by Hildebrand and Rüegsegger (Hildebrand, J. Microsc. 185 (1997) 67-75. doi:10.1046/j.1365-2818.1997.1340694.x.). Regularity of collagen bundles was determined with the plugin “Directionality” as previously reported (Sensini, Biofabrication. 9 (2017) 015025. doi:10.1088/1758-5090/aa6204).
# During wound healing, collagen accumulation and organization are correlated with scar formation. […] Local scar thickness (FIG. 7C) and directionality (FIG. 7D) of collagen in scars were analyzed using ImageJ after Masson's trichrome staining under microscopic examination (20× magnification).
# [3] = test system: collagen bundles (Type 3 / Type 1); assay: Herovici's staining of collagen maturation in healed wounds; format: in vivo, C57BL6/J mice
# From the text: as §3
# Collagens play a crucial role in angiogenesis during tissue regeneration. It is well known that collagen I a central factor allowing for endothelial cells to initiate precapillary cord formation. In contrast increased deposition of collagen III reduces the density of blood vessels at sites of wound healing (Davis, Circ. Res. (2005). doi:10.1161/01.RES.0000191547.64391.e3, O'Rourke, Adv. Wound Care. (2018). doi:10.1089/wound.2018.0827). […]
# [4] = intravenous bolus injections, patients with unstable angina; cited from earlier work
molecule,measurement,setting,value
B1,wound closure earlier compared to saline group,"[1]; 1.0 μg Serp-1, in the first week",four
same,wound closure,"[1]; 1.0 μg/wound at day 0 and day 3, day 5",40%
same,days less to achieve same degree of closure as control group at day 7 (or 2.0 μg at day 5),"[1]; 1.0 μg/wound/mouse, single dose, mean",3 days
same,wound closure,"[1]; 2.0 μg Serp-1, day 5",greater than 20%
same,wound closure,"[1]; 2.0 μg Serp-1, day 7",47%
same,wound healing accelerated by,"[1]; 2 μg/mouse, single topical dose day 0, p<0.0001",approximately 3 days
same,day of healing equivalent to saline alone on Day 7,[1]; Serp-1 [1+1]: 1 μg/mouse on Days 0 and 3 (FIG. 2C),3 days
same,faster closure rate,"[1]; mouse model, conclusion",40%
same,scarring,"[1]; mouse model, conclusion",reduction in scarring
same,completeness of closure,"[1]; repeated treatment group (1.0 μg day 0 + day 3), 15 days of observation",more completely closure than other groups
same,wound closure,"[1]; single dose treatment groups, day 5",30%
same,"time to wound closure accelerated by, compared to saline","[1]; topical, doses of between 1 microgram and 2 micrograms, punch wounds on mouse back",2 to 5 days
same,number of vessels each image (CD31-positive),"CD31-positive vessels; day 7, peri-wound area, saline control 10.0±2.5",36.3±4.9
same,appearance of CD31-positive vessels,"CD31-positive vessels; day 7, versus saline alone","appreciably more “mature” CD31-positive vessels, with increased length and thickness"
same,Ly6G positive cells in healing tissues,Ly6G positive cells,non significant trend toward an increase
same,density of Arg-1 positive macrophages,"[2]; day 4, compared to control wounds",significantly increased density
same,density of Arg-1 positive (M2) macrophages,"[2]; day 7, compared to untreated wounds",significant higher
same,collagen bundle thickness,dermal collagen fibers,increased bundle thickness
same,collagen directionality,dermal collagen fibers,more organized directionality
same,ratio of collagen types in treated wound,"[3]; Herovici's stain, FIG. 8",increasing the ratio of collagen III to collagen I
same,collagen maturation by Herovici's stain,"[3]; day 15, versus saline-treated wounds",greater degree of maturation
same,safety,[4],proved safe

# Source: US12296066B2, “Methods of wound healing with Serp-1 polypeptides” (ARIZONA BOARD OF REGENTS ON BEHALF OF ARIZONA STATE …, priority 2018, dated 2025)
